Measured values as given in patent US11015206B2, “Compositions and methods comprising sequences having hydroxyphenylpyruvate dioxygenase (HPPD) activity” (PIONEER HI-BRED INTERNATIONAL, INC., priority 2014, dated 2021).
Numbering of substitutions follows the chain as printed. Numbers in names are those of the source. Blank lines part the entries; values can stand above or below the molecule they belong to.

Legend:
Type in all cases: biochemical, Z. mays
[1] = system: 4-hydroxyphenylpyruvate dioxygenase (HPPD); experiment: ON rate ratio: HPPD reaction rate with vs without inhibitor in the 70 to 90 second interval; conditions: Table 5; tembotrione
Procedure, shortened: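 Time courses of HPPD reactions, 60 or 120 nM enzyme with 100 μM HPP substrate, run with and without 4 μM inhibitor (e.g. mesotrione, tembotrione). Value is the rate with inhibitor over rate without, taken over 70–90 s; higher ratio reflects slower kON.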

[2] = system: 4-hydroxyphenylpyruvate dioxygenase (HPPD); experiment: HPPD activity coupled assay with HGD; substrate saturation kinetic parameters (kcat, KM); conditions: Table 6; for kcat: single substitutions in SEQ ID NO:2
Protocol: Wild type and shuffled variant genes were cloned into pVER7062, a modified version of pET24a(+)(Novagen), which places six histidine residues at the N-terminus of the expressed protein. Vectors were electroporated into E. coli host strain BL21(DE3). Cells were grown at 30 C in rich medium such as 2×YT containing the selection antibiotic, kanamycin. At a density of about 0.6 OD600, IPTG was added to 0.2 mM, the temperature was reduced to 16 C and growth continued for another 24 hrs. Cells were harvested by centrifugation and stored at −80 C. Cell pellets were lysed in BPER (Pierce) protein extraction reagent containing 0.2 mg/ml lysozyme, 1 mM dithiothreitol, protease inhibitor cocktail (Sigma, bacterial cocktail) and endonuclease. Insoluble cellular debris was removed by centrifugation. HPPD protein was purified from the soluble protein solution by affinity chromatography on the nickel form of nitrilotriacetic acid (Ni-NTA) resin (Qiagen). Protein concentrations were determined by the Bradford method, as supplied by Bio-Rad.
HPPD catalyzes the conversion of 4-hydroxyphenylpyruvate (HPP) to homogentisate (FIG. 17). […] However, the product of the ensuing reaction in tyrosine metabolism, maleylacetoacetate, absorbs strongly at 320 nm. Furthermore, the enzyme catalyzing that reaction is also a dioxygenase having similar mechanism and buffer requirements as HPPD, making homogentisate dioxygenase (HGD) an ideal partner in a coupled assay, as shown.
The HDG gene from Pseudomonas aeruginosa (Amaya (2004) Arch Biochem Biophys 421, 135-142) was cloned into pVER7062 and electroporated into E. coli strain BL21(DE3). The enzyme was produced by methods similar to those described for HPPD. The purified enzyme has a KM for homogentisate of 23 μM and a kcat of 100/sec, properties highly suited for instantly converting the homogentisate produced by HPPD to maleylacetoacetate.
HPPD activity was measured by placing an aliquot (e.g., 6 μl) of the substrate HPP at 50-fold the desired final concentration into the wells of a low UV-absorbing assay plate. Reactions were started by adding a mixture (e.g., 294 μl) containing 25 mM Hepes, pH 7, 2 mM ascorbate, 10 μM FeSO4, 1 to 100 μM HPP, 50 nM HGD and 5 to 240 nM HPPD. Absorbance at 320 nm was monitored continuously in a plate-reading spectrophotometer (Spectramax, Molecular Devices).
The catalytic performance of wild-type HPPD and variants generated by shuffling was assessed by determining the substrate saturation kinetic parameters. The Michaelis-Menten kinetics protocol of the Spectramax software was customized for HPP concentrations ranging from 3.33 μM to 100 μM. Reaction rates were measured as described above for each concentration of HPP. The software returns values of KM and Vmax using the Lineweaver-Burke transformation of the Michaelis-Menten equation.

[3] = system: 4-hydroxyphenylpyruvate dioxygenase (HPPD); experiment: OFF rate ratio: release of inhibitor from pre-formed enzyme-inhibitor complex; conditions: Table 5; tembotrione
Procedure, shortened: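 HPPD (7.2 μM) pre-incubated 1 h at RT with inhibitor (8 μM), then diluted into 25 mM Hepes pH 7, 2 mM ascorbate, 10 μM FeSO4, 100 μM HPP, 50 nM HGD; A320 followed 12 min. Ratio = steady-state rate with inhibitor over initial rate of inhibitor-free enzyme.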

[4] = system: 4-hydroxyphenylpyruvate dioxygenase (HPPD); experiment: Estimate of kcat from initial rate at saturating hydroxyphenylpyruvate without inhibitor (ON rate ratio assay); conditions: Table 5; single substitutions in Round 7 variant 9070 (SEQ ID NO:2); estimate from initial rate at saturating hydroxyphenylpyruvate without inhibitor
Procedure, shortened: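 Reactions used 60 or 120 nM HPPD and saturating 100 μM hydroxyphenylpyruvate without inhibitor. kcat was estimated from the initial rate at the known enzyme concentration.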

[5] = system: 4-hydroxyphenylpyruvate dioxygenase (HPPD); experiment: Insensitivity parameter (ON × OFF) and trait fitness (ON × OFF × kcat/KM or × kcat); conditions: for ON × OFF × kcat, Value / ON × OFF × kcat, Fold vs wt / ON × OFF, fold vs wt / ON × OFF (parameters with tembotrione): Table 5, tembotrione; for ON × OFF × kcat, Fold vs wt / ON × OFF, fold vs wt: fold vs maize wild type HPPD; for ON × OFF (parameters with tembotrione): insensitivity parameter
Procedure, shortened: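 Calculated, not measured directly: ON rate ratio × OFF rate ratio gives an insensitivity parameter serving as a KD surrogate.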

[6] = DKN (diketonitrile form of isoxaflutole)
[7] = DKN (isoxaflutole diketonitrile)

B2: 211L: single substitution Y211L in SEQ ID NO:2 (protein)
chain: MGPTPTATAAGAAVAAASAAEQAAFRLVGHRNFVRFNPRSDRFQTLAFHHVELWCADAASAAGRFSFALGVPLAARSDLSTGNSAHASLLLRSGSLSLLFTAPYAHGADAATAALPSFSAAAARRFAADHGLAVRAVALRVADAEDAFRASVAAGARPAFGPVDLGRGFRLAEVELYGDVVLRYVSYPDGAAGEPFLPGFEGVASPGAADLGLSRFDHIVGNVPELAPAAAYMAGFTGFHEFAEFTTEDVGTTESGLNSMALANNSENVLLPLNEPVHGTKRRSQIQTFLDHHGGPGVQHIALASDDVLRTLREMRARSAMGGFEFLPPPLSDYYDGVRRCAGDVLTEAQINECQELGVMVDRDDQGVLLQIFTKPVGDRPTFFLEIIQRIGCMEKDEKGQEYQKGGCGGFGKGNFGQLFKSIEDYEKSLEAKQAAAAATAQGS
modifications: Zea mays variant form created by artificial means.
ON ratio (parameters with tembotrione) [1]: 0.77
Km [2]: 3.2 µM
kcat [2]: 1.29 s⁻¹
OFF ratio (parameters with tembotrione) [3]: 0.17
kcat [4]: 0.615 s⁻¹
Insensitivity parameter, ON × OFF [5, 6]: 0.25
ON × OFF × kcat/km fold vs Round 7, variant 9070 [5, 7]: 1.1
Insensitivity parameter, ON × OFF ([5]; Mesotrione, Table 6): 0.37
ON × OFF × kcat/km fold vs Round 7, variant 9070 ([5]; Sulco (sulcotrione)): 0.9
Insensitivity parameter, ON × OFF ([5]; Sulcotrione): 0.47
ON × OFF × kcat, Value [5]: 4.72
ON × OFF × kcat, Fold vs wt [5]: 4.41
ON × OFF, fold vs wt [5]: 25.0
ON × OFF (parameters with tembotrione) [5]: 0.13
Insensitivity parameter, ON × OFF ([5]; Tembotrione): 0.22
ON × OFF × kcat/km fold vs Round 7, variant 9070 ([5]; Topra (topramezone)): 1.1
Insensitivity parameter, ON × OFF ([5]; Topramezon): 0.27
ON × OFF × kcat/km fold vs Round 7, variant 9070 ([5]; meso (mesotrione)): 0.9
ON × OFF × kcat/km fold vs Round 7, variant 9070 ([5]; tembo (tembotrione)): 1.1

B4: 340K: single substitution R340K in SEQ ID NO:2 (protein)
chain: B2 chain with L211Y, R340K
modifications: Zea mays variant form created by artificial means.
ON ratio (parameters with tembotrione) [1]: 0.75
Km [2]: 2.41 µM
kcat [2]: 1.22 s⁻¹
OFF ratio (parameters with tembotrione) [3]: 0.20
kcat [4]: 0.745 s⁻¹
Insensitivity parameter, ON × OFF [5, 6]: 0.23
ON × OFF × kcat/km fold vs Round 7, variant 9070 [5, 7]: 2.2
Insensitivity parameter, ON × OFF ([5]; Mesotrione, Table 6): 0.44
ON × OFF × kcat/km fold vs Round 7, variant 9070 ([5]; Sulco (sulcotrione)): 1.3
Insensitivity parameter, ON × OFF ([5]; Sulcotrione): 0.54
ON × OFF × kcat, Value [5]: 6.56
ON × OFF × kcat, Fold vs wt [5]: 6.13
ON × OFF, fold vs wt [5]: 28.7
ON × OFF (parameters with tembotrione) [5]: 0.15
Insensitivity parameter, ON × OFF ([5]; Tembotrione): 0.16
ON × OFF × kcat/km fold vs Round 7, variant 9070 ([5]; Topra (topramezone)): 1.1
Insensitivity parameter, ON × OFF ([5]; Topramezon): 0.22
ON × OFF × kcat/km fold vs Round 7, variant 9070 ([5]; meso (mesotrione)): 1.3
ON × OFF × kcat/km fold vs Round 7, variant 9070 ([5]; tembo (tembotrione)): 1.2

B6: 206S: single substitution P206S in SEQ ID NO:2 (protein)
chain: B2 chain with P206S, L211Y
modifications: Zea mays variant form created by artificial means.
ON ratio (parameters with tembotrione) [1]: 0.75
Km [2]: 3.36 µM
kcat [2]: 1.13 s⁻¹
OFF ratio (parameters with tembotrione) [3]: 0.20
kcat [4]: 0.592 s⁻¹
Insensitivity parameter, ON × OFF [5, 6]: 0.29
ON × OFF × kcat/km fold vs Round 7, variant 9070 [5, 7]: 1.1
Insensitivity parameter, ON × OFF ([5]; Mesotrione, Table 6): 0.46
ON × OFF × kcat/km fold vs Round 7, variant 9070 ([5]; Sulco (sulcotrione)): 0.8
Insensitivity parameter, ON × OFF ([5]; Sulcotrione): 0.53
ON × OFF × kcat, Value [5]: 5.15
ON × OFF × kcat, Fold vs wt [5]: 4.82
ON × OFF, fold vs wt [5]: 28.5
ON × OFF (parameters with tembotrione) [5]: 0.15
Insensitivity parameter, ON × OFF ([5]; Tembotrione): 0.20
ON × OFF × kcat/km fold vs Round 7, variant 9070 ([5]; Topra (topramezone)): 1.0
Insensitivity parameter, ON × OFF ([5]; Topramezon): 0.29
ON × OFF × kcat/km fold vs Round 7, variant 9070 ([5]; meso (mesotrione)): 0.9
ON × OFF × kcat/km fold vs Round 7, variant 9070 ([5]; tembo (tembotrione)): 1.1

Now from value to molecule, other results behind:

ON ratio (parameters with tembotrione) [1]: 0.75
OFF ratio (parameters with tembotrione) [3]: 0.21
Insensitivity parameter, ON × OFF [5, 6]: 0.25
Insensitivity parameter, ON × OFF ([5]; Mesotrione, Table 6): 0.48
Insensitivity parameter, ON × OFF ([5]; Sulcotrione): 0.55
ON × OFF, fold vs wt [5]: 31.2
ON × OFF (parameters with tembotrione) [5]: 0.16
Insensitivity parameter, ON × OFF ([5]; Tembotrione): 0.18
Insensitivity parameter, ON × OFF ([5]; Topramezon): 0.23
B1: 356K: single substitution E356K in SEQ ID NO:2 (protein)
chain: B2 chain with L211Y, E356K
modifications: Zea mays variant form created by artificial means.
Km [2]: 2.6 µM
kcat [2]: 1.1 s⁻¹
kcat [4]: 0.647 s⁻¹
ON × OFF × kcat/km fold vs Round 7, variant 9070 [5, 7]: 1.1
ON × OFF × kcat/km fold vs Round 7, variant 9070 ([5]; Sulco (sulcotrione)): 1.1
ON × OFF × kcat, Value [5]: 6.18
ON × OFF × kcat, Fold vs wt [5]: 5.78
ON × OFF × kcat/km fold vs Round 7, variant 9070 ([5]; Topra (topramezone)): 0.9
ON × OFF × kcat/km fold vs Round 7, variant 9070 ([5]; meso (mesotrione)): 1.2
ON × OFF × kcat/km fold vs Round 7, variant 9070 ([5]; tembo (tembotrione)): 1.2

ON ratio (parameters with tembotrione) [1]: 0.73
OFF ratio (parameters with tembotrione) [3]: 0.15
Insensitivity parameter, ON × OFF [5, 6]: 0.18
Insensitivity parameter, ON × OFF ([5]; Mesotrione, Table 6): 0.39
Insensitivity parameter, ON × OFF ([5]; Sulcotrione): 0.47
ON × OFF, fold vs wt [5]: 21.2
ON × OFF (parameters with tembotrione) [5]: 0.11
Insensitivity parameter, ON × OFF ([5]; Tembotrione): 0.15
Insensitivity parameter, ON × OFF ([5]; Topramezon): 0.22
B3: 434R: single substitution Q434R in SEQ ID NO:2 (protein)
chain: B2 chain with L211Y, Q434R
modifications: Zea mays variant form created by artificial means.
Km [2]: 2.74 µM
kcat [2]: 1.35 s⁻¹
kcat [4]: 0.868 s⁻¹
ON × OFF × kcat/km fold vs Round 7, variant 9070 [5, 7]: 1.1
ON × OFF × kcat/km fold vs Round 7, variant 9070 ([5]; Sulco (sulcotrione)): 1.1
ON × OFF × kcat, Value [5]: 5.63
ON × OFF × kcat, Fold vs wt [5]: 5.26
ON × OFF × kcat/km fold vs Round 7, variant 9070 ([5]; Topra (topramezone)): 1.1
ON × OFF × kcat/km fold vs Round 7, variant 9070 ([5]; meso (mesotrione)): 1.1
ON × OFF × kcat/km fold vs Round 7, variant 9070 ([5]; tembo (tembotrione)): 1.1

ON ratio (parameters with tembotrione) [1]: 0.75
OFF ratio (parameters with tembotrione) [3]: 0.19
Insensitivity parameter, ON × OFF [5, 6]: 0.26
Insensitivity parameter, ON × OFF ([5]; Mesotrione, Table 6): 0.46
Insensitivity parameter, ON × OFF ([5]; Sulcotrione): 0.56
ON × OFF, fold vs wt [5]: 27.0
ON × OFF (parameters with tembotrione) [5]: 0.14
Insensitivity parameter, ON × OFF ([5]; Tembotrione): 0.15
Insensitivity parameter, ON × OFF ([5]; Topramezon): 0.21
B5: 387L: single substitution I387L in SEQ ID NO:2 (protein)
chain: B2 chain with L211Y, I387L
modifications: Zea mays variant form created by artificial means.
Km [2]: 2.46 µM
kcat [2]: 1.24 s⁻¹
kcat [4]: 0.555 s⁻¹
ON × OFF × kcat/km fold vs Round 7, variant 9070 [5, 7]: 1.6
ON × OFF × kcat/km fold vs Round 7, variant 9070 ([5]; Sulco (sulcotrione)): 1.3
ON × OFF × kcat, Value [5]: 4.58
ON × OFF × kcat, Fold vs wt [5]: 4.28
ON × OFF × kcat/km fold vs Round 7, variant 9070 ([5]; Topra (topramezone)): 1.0
ON × OFF × kcat/km fold vs Round 7, variant 9070 ([5]; meso (mesotrione)): 1.3
ON × OFF × kcat/km fold vs Round 7, variant 9070 ([5]; tembo (tembotrione)): 1.1
